Data as given in US20220356210A1, “A SERIES OF INJECTABLE HYDROGELS SELF-ASSEMBLED FROM SHORT PEPTIDES FOR VARIOUS BIOMEDICAL APPLICATIONS” (Agency for Science, Technology and Research, priority 2019, published 2022).
Non-standard residues stand in square brackets, D forms with d. No end group written: not given here.

Assays:
[1] = Stability of peptide hydrogels in PBS
[2] = CD spectra of peptide amphiphiles; format: physicochemical; settings: 1.0 mg/mL, with addition of salt (PBS pH 7.4), room temperature
Description: CD measurements were performed with a Jasco Model J-810 spectropolarimeter (Jasco, Great Dunmow, Essex, UK) using a quartz cuvette with 1 mm pathlength (Hellma, Germany). Spectra were recorded (average of 3 scans) from 240 to 190 nm at a scan speed of 50 nm/min. The ellipticity was derived from the formula: [θ]λ=(M/(N−1)×θλ)/(d×c), where θλ represents observed ellipticity (degrees) at wavelength λ, d represents pathlength (cm), c represents the concentration (g/mL), and [θ]λ represents residue ellipticity (deg cm^2 dmol^−1). Thermal scans were measured with Jasco Model J-810 spectropolarimeter equipped with a peltier temperature controller. The solution was allowed to reach equilibrium for 10 min at room temperature prior to testing.

[3] = Rheology, G′ and G″ at frequency of 1 Hz; format: physicochemical
Description: The gelation time was determined by the vial tilting method. […] Rheology experiments were performed at room temperature using a control-strain rheometer (ARES G2, TA instruments). The rheometer is equipped with two sensitive force transducers for torque ranging from 0.05 μN·m to 200 mN·m. […] The solution was vortexed and then incubated to form hydrogel. The gel was placed onto parallel-plate geometry (8 mm in diameter). The dynamic storage modulus (G′) and loss modulus (G″) were examined as a function of frequency from 1 to 100 rad/s. The measurements were carried out at a strain amplitude (y) to ensure the linearity of viscoelasticity. Flow sweep (viscosity changes as a function of shear rate) was also performed to study shear thinning properties of hydrogels.

[4] = Gelation by vial tilting method; format: physicochemical; settings: for Concentration to form the gel: in the presence of a salt; for Minimum concentration to form the gel: without the presence of a salt
Description: The peptide powder was dissolved in water or other aqueous solutions at the required concentrations. Alternatively, the required salt may be added after the peptide aqueous solution is prepared. The hydrogel was formed by mixing the peptide aqueous solution and salt (if required). For example, the solution was vortexed and then incubated to form hydrogel. The hydrogel formed may be stored as formed, or may be dried, for example by freeze drying. Alternatively, the hydrogel may be formed as required. The gelation time was determined by the vial tilting method. […] Rheology experiments were performed at room temperature using a control-strain rheometer (ARES G2, TA instruments). The rheometer is equipped with two sensitive force transducers for torque ranging from 0.05 μN·m to 200 mN·m. The peptide powder was dissolved in water at concentrations ranging from 1.0 to 2.0 (w/v) %. The solution was vortexed and then incubated to form hydrogel. The gel was placed onto parallel-plate geometry (8 mm in diameter). The dynamic storage modulus (G′) and loss modulus (G″) were examined as a function of frequency from 1 to 100 rad/s. The measurements were carried out at a strain amplitude (y) to ensure the linearity of viscoelasticity. Flow sweep (viscosity changes as a function of shear rate) was also performed to study shear thinning properties of hydrogels.

[5] = test system: hMSCs; assay: Live/Dead staining of hMSCs on or in peptide hydrogel (confocal); format: cell-based, human
Description: hMSCs were cultured in MSCGM medium (Lonza, U.S.A.) and incubated at 37° C., 5% CO2. The medium was changed every three days. The cells were harvested with PBS containing 0.025 (w/v) % trypsin and 0.01% EDTA, centrifuged and sub-cultured to passage 4 in MSCGM for 2D culture on the surface of hydrogels or 3D hydrogel encapsulation as described below.
The morphology and viability of hMSCs on the surface of hydrogels and inside 3D peptide hydrogel environment was observed by an inverted confocal laser scanning microscope (CLSM) (CLSM, Carl Zeiss, Germany). Live/Dead cell staining assay (Invitrogen) was used. Briefly, cells cultured on the surfaces of hydrogels in chambered cover glass (NUNC, Denmark) were washed with PBS and incubated in 0.5 mL of PBS containing dyes for 10 min, then visualized by CLSM at excitation wavelengths of 488 nm and 532 nm. All the observations were conducted under the same conditions. For the cells grown in 3D hydrogels, the constructs were cut, followed by the addition of staining agent. The gels were transferred to cover glass and then visualized by CLSM using the same method as described for the cells on the hydrogel surface.

[6] = test system: C. neoformans; settings: clinically isolated yeast C. neoformans; cited from earlier work
[7] = test system: P. aeruginosa; settings: clinically isolated multidrug-resistant P. aeruginosa; cited from earlier work
[8] = test system: rat red blood cells; settings: cited from earlier work
[9] = test system: VRE; settings: clinically isolated VRE; cited from earlier work
[10] = antimicrobial peptide alone; cited from earlier work
[11] = test system: A. baumannii; settings: clinically isolated multidrug-resistant A. baumannii; cited from earlier work
[12] = test system: MRSA; settings: clinically isolated MRSA; cited from earlier work
[13] = keratitis mouse model; cited from earlier work
[14] = In vitro cytotoxicity, MTT assay; format: cell-based, human; settings: human
Description: 1000 μL of HDFs or keratinocytes (10^5 cells per mL) were seeded onto the 12-well Transwell plates (Corning). IIK12 (1%) with various contents of antimicrobial peptides were dissolved in water and incubated at 37° C. overnight and 100 μL of gels were then transferred to the inserts of the Transwell plate. 1 mL of fresh medium was added into the inserts. The plates were incubated for 24 h before proceeding to MTT assay. It is noted that cells without any treatment and Mupirocin (GSK) were used as controls. The data were expressed as mean and standard deviation of three replicates and the tests were repeated 3 times.

[15] = 1.5 wt %, gelation temp. 37 °C, DMEM
[16] = 1.5 wt %, gelation temp. 37 °C, H2O
[17] = 1.5 wt %, gelation temp. R.T., H2O
[18] = 2.0 wt %, gelation temp. 37 °C, H2O

Substance: IEIEIRIK (IEIEIRIK-NH2) [IIK8]
- Stability in PBS ([1]; peptide conc. 1.0 %): Yes
- Stability in PBS ([1]; peptide conc. 1.5 %): Yes
- Stability in PBS ([1]; peptide conc. 2.0 %): Yes
- Molecular ellipticity (θM) at the minimum point [2]: −28.9 deg.cm^2dmol^−1
- G′ (storage modulus) [3, 15]: 1206 Pa
- G″ (loss modulus) [3, 15]: 172 Pa
- G′ (storage modulus) [3, 16]: 707 Pa
- G″ (loss modulus) [3, 16]: 32 Pa
- G′ (storage modulus) [3, 17]: 125 Pa
- G″ (loss modulus) [3, 17]: 22 Pa
- G′ (storage modulus) [3, 18]: 1139 Pa
- G″ (loss modulus) [3, 18]: 90 Pa
- Concentration to form the gel [4]: 0.6 % w/v
- Gel appearance, gelation in DI water at R.T. ([4]; peptide conc. 1.0 %): clear
- Gelation in DI water at 37° C. (via tilting) ([4]; peptide conc. 1.0 %): overnight
- Gelation in DI water at R.T. (via tilting), time ([4]; peptide conc. 1.0 %): 1 day, days
- Gelation in DI water at 37° C. (via tilting), time ([4]; peptide conc. 1.5 %): ≤ 15 min
- Gelation in DI water at R.T. (via tilting), time ([4]; peptide conc. 1.5 %): 30 min
- Gelation in DI water at 37° C. (via tilting), time ([4]; peptide conc. 1.5 %, listed as IEIEIRIK): 20 min
- Gelation in DI water at 37° C. (via tilting), time ([4]; peptide conc. 2.0 %): 20 min
- Gelation in DI water at R.T. (via tilting), time ([4]; peptide conc. 2.0 %): 30 min
- Minimum concentration to form the gel [4]: 1.0 % w/v

Substance: IELEIRLK (IELEIRLK-NH2) [ILK8]
- Stability in PBS ([1]; peptide conc. 1.0 %): Yes
- Stability in PBS ([1]; peptide conc. 1.5 %): Yes
- Stability in PBS ([1]; peptide conc. 2.0 %): Yes
- Molecular ellipticity (θM) at the minimum point [2]: −21.4 deg.cm^2dmol^−1
- G′ (storage modulus) [3, 17]: 332 Pa
- G″ (loss modulus) [3, 17]: 40 Pa
- Concentration to form the gel [4]: 0.6 % w/v
- Gelation in DI water at 37° C. (via tilting) ([4]; peptide conc. 1.0 %): overnight
- Gelation in DI water at R.T. (via tilting), time ([4]; peptide conc. 1.0 %): 1 day days
- Gelation in DI water at 37° C. (via tilting), time ([4]; peptide conc. 1.5 %): 15 min
- Gelation in DI water at R.T. (via tilting), time ([4]; peptide conc. 1.5 %): 30 min
- Gelation in DI water at 37° C. (via tilting), time ([4]; peptide conc. 2.0 %): 10 min
- Gelation in DI water at R.T. (via tilting), time ([4]; peptide conc. 2.0 %): 20 min
- Minimum concentration to form the gel [4]: 1.0 % w/v

Substance: IEVEIEVKIRVK (IEVEIEVKIRVK-NH2) [IEV12]
- Gelation in DI water at R.T. (via tilting) ([4]; peptide conc. 0.5 %): No
- Gelation in DI water at 37° C. (via tilting) ([4]; peptide conc. 1.0, 2.0 %): Gel

Substance: IEVEIRVK-NH2 [IVK8, IEVEIRVK]
- Viability of encapsulated cells ([5]; 1 day after encapsulation): the majority of encapsulated hMSCs remained viable
- Viability of cells on the surface of peptide hydrogel ([5]; after 24 h attachment): the majority of the cells remained viable

Substance: IK8D: D-enantiomer of antimicrobial peptide IRIKIRIK ([dI][dR][dI][dK][dI][dR][dI][dK])
- MIC [6]: 7.8 µg/mL
- MIC [7]: 15.6 µg/mL
- HC10 value (the lowest concentration that induced 10% or more hemolysis) [8]: 1750 µg/mL
- MIC [9]: 3.9 µg/mL
- Peptide concentration at which a hydrogel forms [10]: 8 w/v %
- MIC [11]: 31.3 µg/mL
- MIC [12]: 3.9 µg/mL

Substance: IRIKIRIK-NH2 [IK8L, IRIKIRIK]
- Toxicity to the eyes [13]: without causing significant toxicity to the eyes
- HC10 value (the lowest concentration that induced 10% or more hemolysis) [8]: 2000 µg/mL
- viability at 24 h, 1000 µg/mL ([14]; human dermal fibroblasts (HDFs) in 12-well Transwell plates): 22%
- viability at 24 h, 125 µg/mL ([14]; human primary keratinocytes in 12-well Transwell plates): > 70%

Substance: IRVE (IRVE-NH2)
- Gelation in DI water at R.T. (via tilting) ([4]; peptide conc. 10 %): No

Substance: IRVEIEVK (IRVEIEVK-NH2) [IRK8]
- Gel formation ([4]; concentrations up to 2%): no gel formation
- Gelation in DI water at R.T. (via tilting) ([4]; peptide conc. 1.0 %): No
- Gelation in DI water at R.T. (via tilting) ([4]; peptide conc. 2.0 %): No

Substance: IRVEIK (IRVEIK-NH2)
- Gelation in DI water at R.T. (via tilting) ([4]; peptide conc. 1.0 %): No
- Gelation in DI water at R.T. (via tilting) ([4]; peptide conc. 2.0 %): No

Substance: IRVEIKVE (IRVEIKVE-NH2) [IRE8]
- Gelation in DI water at R.T. (via tilting) ([4]; peptide conc. 1.0 %): No
- Gel appearance, gelation in DI water at R.T. ([4]; peptide conc. 2.0 %): clear
- Gelation in DI water at 37° C. (via tilting), time ([4]; peptide conc. 2.0 %): 1400 min
- Gelation in DI water at R.T. (via tilting), time ([4]; peptide conc. 2.0 %): 4300 min
- Gelation in DI water at R.T. (via tilting), time ([4]; peptide conc. 2.0 %, listed as IRVEIKVE): 3 days,

Substance: IRVEIRVEIRVE (IRVEIRVEIRVE-NH2) [IRV12]
- Gelation in DI water at R.T. (via tilting) ([4]; peptide conc. 0.5 %): No
- Gel appearance, gelation in DI water at 37° C. ([4]; peptide conc. 1.0, 2.0 %): cloudy
- Gelation in DI water at 37° C. (via tilting) ([4]; peptide conc. 1.0, 2.0 %): Gel,

Substance: IRVKIEVEIRVK (IRVKIEVEIRVK-NH2) [IVK12]
- Lowest concentration at which hydrogels self-assembled ([4]; aqueous solution): 0.6 (w/v) %
- Gelation in DI water at 37° C. (via tilting) ([4]; peptide conc. 0.6, 1.0 %): Gel
